Test [1] in a line: Peracetic acid generation from hydroxyapatite bound CE-7 perhydrolase fusions (Example 8). It is filed as biochemical. The settings on record: hydroxyapatite particles exposed to 10 μM enzyme, washed; 100 mM triacetin, 100 mM H2O2, 30 min, 37° C.; no enzyme 30-118.8. How it is done:
(§1) The detection of peracetic acid followed the method described in Pinkernell et. al. (Analyst, 1997, 122, 567) using colorimetric detection of 2,2′-azino-bis(3-ethylbenzothiazoline(-6-sulfonate (ABTS) oxidation by peracetic acid. Following the formation of peracetic acid with the addition of triacetin and hydrogen peroxide, 90 μL of solution was added to 10 μL of 0.1 M H3PO4 in a well plate. 50 μL of 1 M acetic acid, 50 μL of 0.5 g/L ABTS and 50 μL of 0.002 g/L of KI was added. The solution was allowed to develop for 5 min. The absorbance of the solution was measured at 405 nm using a microplate reader. The peracetic acid concentration was calculated based on a standard curve developed simultaneously using peracetic acid reagent solution.
To assess binding of these constructs to hydroxyapatite, 33 mg of hydroxyapatite particles (Macro-prep Ceramic Hydroxyapatite TYPE I, 80 μm size BioRad, Hercules, Calif.), were washed with 10 mM phosphate buffer at pH 7.2. After removing the supernatant, enzyme stock solution was added to the hydroxyapatite dispersion to a final concentration of 10 μM and incubated for 30 min in a microcentrifuge tube with gentle agitation. Each sample was centrifuged for 1 min at 10000 rpm. The supernatant was removed and additional buffer was added. The particles were resuspended and transferred to a new tube. The process was repeated two additional times. The hydroxyapatite bound enzyme activity was measured by adding a 500 μl solution containing 100 mM triacetin, 100 mM H2O2 in 100 mM phosphate buffer, pH 7.2. The solution was incubated for 30 min, at 37° C. An aliquot was removed and mixed with H3PO4 and properly diluted for detection via ABTS oxidation as described in Example 7. The experiments were performed at different day with no enzyme as control for each experiment.

Test [2] in a line: Peracetic acid generated in solution by CE-7 perhydrolase fusions (Example 8). Type of test: biochemical. As to conditions: 0.5 μM enzyme, 100 mM triacetin, 100 mM H2O2, pH 7.2, 10 min, 37° C.; no enzyme 378.9. How it is done:
as §1
Perhydrolase enzymes listed in Table 6 were assessed for solution activities. The method to measure the perhydrolase in solution activity was described in Example 7 by making a 500 μL solution containing 0.5 μM of enzyme, 100 mM triacetin, 100 mM H2O2 in 100 mM phosphate buffer, pH 7.2. The solution was mixed and incubated for 10 min at 37° C. A 10 μL aliquot was removed and diluted for detection as described in Example 7. Peracetic acid concentration was determined using a standard curve generated with a stock solution of peracetic acid (Aldrich). The experiment was also performed with no enzyme present as a control.

A short description of test [3]: Peracetic acid generated in solution by C277S CXH fusions (Example 9). As to conditions: 0.5 μM enzyme, sarkosyl buffer, 100 mM triacetin, 100 mM H2O2, pH 7.2, 10 min, 37° C.
Test [4] is described as follows: Peracetic acid from C277S CXH fusions exposed to hydroxyapatite discs (Example 9). As to conditions: no enzyme control subtracted; for Peracetic acid (ppm) Exposed to Hydroxyapatite, Disc: disc-bound enzyme, 100 mM triacetin, 100 mM H2O2, 30 min, 37° C.; for Peracetic acid (ppm) Exposed to Hydroxyapatite, Supernatant: unbound enzyme in supernatant after 10 μM enzyme on disc.

The results in this text go back to US8663616B2, “Enzymatic peracid generation for use in oral care products” (E I du Pont de Nemours and Company, priority 2010, dated 2014).

B1: EZ-27: Bpu-link1-H6, SEQ ID NO: 451 (protein)
chain: MQLFDLSLEELKKYKPKKTARPDFSDFWKKSLEELRQVEAEPTLESYDYPVKGVKVYRLTYQSFGHSKIEGFYAVPDQTGPHPALVRFHGYNASYDGGIHDIVNWALHGYATFGMLVRGQGGSEDTSVTPGGHALGWMTKGILSKDTYYYRGVYLDAVRALEVIQSFPEVDEHRIGVIGGSQGGALAIAAAALSDIPKVVVADYPYLSNFERAVDVALEQPYLEINSYFRRNSDPKVEEKAFETLSYFDLINLAGWVKQPTLMAIGLIDKITPPSTVFAAYNHLETDKDLKVYRYFGHEFIPAFQTEKLSFLQKHLLLSTGPGSGGAGSPGSAGGPGSHHHHHH
On to B1, for which the “Peracetic acid (ppm)” value in test [1] came to 634.9 ppm. Moreover, the “PAA (ppm)” value in test [2] is recorded as 2332.9 ppm.

B2: EZ-19: C277S-EPEPE-link1-EPEPE-CXH201-H6, SEQ ID NO: 443 (protein)
chain: MAFFDLPLEELKKYRPERYEEKDFDEFWEETLAESEKFPLDPVFERMESHLKTVEAYDVTFSGYRGQRIKGWLLVPKLEEEKLPCVVQYIGYNGGRGFPHDWLFWPSMGYICFVMDTRGQGSGWLKGDTPDYPEGPVDPQYPGFMTRGILDPRTYYYRRVFTDAVRAVEAAASFPQVDQERIVIAGGSQGGGIALAVSALSKKAKALLCDVPFLCHFRRAVQLVDTHPYAEITNFLKTHRDKEEIVFRTLSYFDGVNFAARAKIPALFSVGLMDNISPPSTVFAAYNYYAGPKEIRIYPYNNHEGGGSFQAVEQVKFLKKLFEKGEPEPEGPGSGGAGSPGSAGGPGSEPEPEWKTKKILLSRTRRIMRQVVRSVMHKIWHHHHHH
For the molecule B2, in test [3], the “Peracetic acid (ppm) In Solution” value came out at 4088 ppm. Besides, in test [4], the “Peracetic acid (ppm) Exposed to Hydroxyapatite, Disc” value (from here on “Peracetic acid (ppm) Exposed … Disc”) came out at 3136 ppm and the “Peracetic acid (ppm) Exposed to Hydroxyapatite, Supernatant” value (from here on “Peracetic acid … Supernatant”) was found to be 1665 ppm.

B3: EZ-28: Bpu-link1-HC263-H6, SEQ ID NO: 452 (protein)
chain: MQLFDLSLEELKKYKPKKTARPDFSDFWKKSLEELRQVEAEPTLESYDYPVKGVKVYRLTYQSFGHSKIEGFYAVPDQTGPHPALVRFHGYNASYDGGIHDIVNWALHGYATFGMLVRGQGGSEDTSVTPGGHALGWMTKGILSKDTYYYRGVYLDAVRALEVIQSFPEVDEHRIGVIGGSQGGALAIAAAALSDIPKVVVADYPYLSNFERAVDVALEQPYLEINSYFRRNSDPKVEEKAFETLSYFDLINLAGWVKQPTLMAIGLIDKITPPSTVFAAYNHLETDKDLKVYRYFGHEFIPAFQTEKLSFLQKHLLLSTGPGSGGAGSPGSAGGPGSPSAQSQLPDKHSGLHERAPQRYGPEPEPEPEPIPEPPKEAPVVIEKPKPKPKPKPKPPAHDHKNQKETHQRHAAGSGGGGSPHHHHHH
Turning to B3, in test [1], the “Peracetic acid (ppm)” value was 534.2 ppm. The “PAA (ppm)” value in test [2] was determined as 2512.7 ppm.

B4: EZ-23: C277S-EPEPE-Link1-EPEPE-CXH104-H6, SEQ ID NO: 447 (protein)
chain: MAFFDLPLEELKKYRPERYEEKDFDEFWEETLAESEKFPLDPVFERMESHLKTVEAYDVTFSGYRGQRIKGWLLVPKLEEEKLPCVVQYIGYNGGRGFPHDWLFWPSMGYICFVMDTRGQGSGWLKGDTPDYPEGPVDPQYPGFMTRGILDPRTYYYRRVFTDAVRAVEAAASFPQVDQERIVIAGGSQGGGIALAVSALSKKAKALLCDVPFLCHFRRAVQLVDTHPYAEITNFLKTHRDKEEIVFRTLSYFDGVNFAARAKIPALFSVGLMDNISPPSTVFAAYNYYAGPKEIRIYPYNNHEGGGSFQAVEQVKFLKKLFEKGEPEGPGSGGAGSPGSAGGPGSEPERMLSRILRMFVRILKRERLSQVRGLFVHHHHHH
For B4, the “Peracetic acid (ppm) In Solution” value in test [3] was found to be 2212 ppm. Further, in test [4], the “Peracetic acid (ppm) Exposed … Disc” value came to 4463 ppm and the “Peracetic acid … Supernatant” value was 1712 ppm.

B5: EZ-22: C277S-EPEPEPEPEPE-Link1-CXHG2-H6, SEQ ID NO: 446 (protein)
chain: MAFFDLPLEELKKYRPERYEEKDFDEFWEETLAESEKFPLDPVFERMESHLKTVEAYDVTFSGYRGQRIKGWLLVPKLEEEKLPCVVQYIGYNGGRGFPHDWLFWPSMGYICFVMDTRGQGSGWLKGDTPDYPEGPVDPQYPGFMTRGILDPRTYYYRRVFTDAVRAVEAAASFPQVDQERIVIAGGSQGGGIALAVSALSKKAKALLCDVPFLCHFRRAVQLVDTHPYAEITNFLKTHRDKEEIVFRTLSYFDGVNFAARAKIPALFSVGLMDNISPPSTVFAAYNYYAGPKEIRIYPYNNHEGGGSFQAVEQVKFLKKLFEKGEPEPEPEPEPEGPGSGGAGSPGSAGGPGSPLWRRITKRKLVRPVATLMWYWFTSKRHHHHHH
On to B5, for which the “Peracetic acid (ppm) In Solution” value in test [3] was 2305 ppm. Further, in test [4], the “Peracetic acid (ppm) Exposed … Disc” value is recorded as 2495 ppm and the “Peracetic acid … Supernatant” value turned out to be 477 ppm.

B6: EZ-21: C277S-EPEPE-link1-EPEPE-CXHG2-H6, SEQ ID NO: 445 (protein)
chain: MAFFDLPLEELKKYRPERYEEKDFDEFWEETLAESEKFPLDPVFERMESHLKTVEAYDVTFSGYRGQRIKGWLLVPKLEEEKLPCVVQYIGYNGGRGFPHDWLFWPSMGYICFVMDTRGQGSGWLKGDTPDYPEGPVDPQYPGFMTRGILDPRTYYYRRVFTDAVRAVEAAASFPQVDQERIVIAGGSQGGGIALAVSALSKKAKALLCDVPFLCHFRRAVQLVDTHPYAEITNFLKTHRDKEEIVFRTLSYFDGVNFAARAKIPALFSVGLMDNISPPSTVFAAYNYYAGPKEIRIYPYNNHEGGGSFQAVEQVKFLKKLFEKGEPEPEGPGSGGAGSPGSAGGPGSEPEPEPLWRRITKRKLVRPVATLMWYWFTSKRHHHHHH
With B6, the “Peracetic acid (ppm) In Solution” value in test [3] is reported as 2764 ppm. In test [4], the “Peracetic acid (ppm) Exposed … Disc” value was found to be 3109 ppm and the “Peracetic acid … Supernatant” value came out at 1581 ppm.

B7: EZ-20: C277S-EPEPEPEPEPE-link1-CXH201-H6, SEQ ID NO: 444 (protein)
chain: MAFFDLPLEELKKYRPERYEEKDFDEFWEETLAESEKFPLDPVFERMESHLKTVEAYDVTFSGYRGQRIKGWLLVPKLEEEKLPCVVQYIGYNGGRGFPHDWLFWPSMGYICFVMDTRGQGSGWLKGDTPDYPEGPVDPQYPGFMTRGILDPRTYYYRRVFTDAVRAVEAAASFPQVDQERIVIAGGSQGGGIALAVSALSKKAKALLCDVPFLCHFRRAVQLVDTHPYAEITNFLKTHRDKEEIVFRTLSYFDGVNFAARAKIPALFSVGLMDNISPPSTVFAAYNYYAGPKEIRIYPYNNHEGGGSFQAVEQVKFLKKLFEKGEPEPEPEPEPEGPGSGGAGSPGSAGGPGSWKTKKILLSRTRRIMRQVVRSVMHKIWHHHHHH
Turning to B7, the “Peracetic acid (ppm) In Solution” value in test [3] was 2265 ppm. In addition, in test [4], the “Peracetic acid (ppm) Exposed … Disc” value turned out to be 2795 ppm and the “Peracetic acid … Supernatant” value came to 1229 ppm.

B8: EZ-35: Lla-link1-DenP308-H6, SEQ ID NO: 459 (protein)
chain: MTKINNWQDYQGSSLKPEDFDKFWDEKINLVSNHQFEFELIEKNLSSKVVNFYHLWFTAIDGAKIHAQLIVPKNLKEKYPAILQFHGYHCDSGDWVDKIGIVAEGNVVLALDCRGQGGLSQDNIQTMGMTMKGLIVRGIDEGYENLYYVRQFMDLITATKILSEFDFVDETNISAQGASQGGALAVACAALSPLIKKVTATYPFLSDYRKAYELGAEESAFEELPYWFQFKDPLHLREDWFFNQLEYIDIQNLAPRIKAEVIWILGGKDTVVPPITQMAAYNKIQSKKSLYVLPEYGHEYLPKISDWLRENQGPGSGGAGSPGSAGGPGSDPTKPPRTPTANTSRPHHNFGSGGGGSPHHHHH
For the molecule B8, in test [1], the “Peracetic acid (ppm)” value is listed as 260 ppm. Besides, in test [2], the “PAA (ppm)” value came to 998 ppm.

B9: EZ-34: Lla-link1-HC263-H6, SEQ ID NO: 458 (protein)
chain: MTKINNWQDYQGSSLKPEDFDKFWDEKINLVSNHQFEFELIEKNLSSKVVNFYHLWFTAIDGAKIHAQLIVPKNLKEKYPAILQFHGYHCDSGDWVDKIGIVAEGNVVLALDCRGQGGLSQDNIQTMGMTMKGLIVRGIDEGYENLYYVRQFMDLITATKILSEFDFVDETNISAQGASQGGALAVACAALSPLIKKVTATYPFLSDYRKAYELGAEESAFEELPYWFQFKDPLHLREDWFFNQLEYIDIQNLAPRIKAEVIWILGGKDTVVPPITQMAAYNKIQSKKSLYVLPEYGHEYLPKISDWLRENQGPGSGGAGSPGSAGGPGSPSAQSQLPDKHSGLHERAPQRYGPEPEPEPEPIPEPPKEAPVVIEKPKPKPKPKPKPPAHDHKNQKETHQRHAAGSGGGGSPHHHHHH
On to B9, for which the “Peracetic acid (ppm)” value in test [1] is 242.2 ppm. Besides, in test [2], the “PAA (ppm)” value amounted to 786 ppm.
